Measurements published in patent publication US7456007.

Tests used:
[1] = molecular target: Swedish mutant P13-P5′ peptide with P1′ aspartic acid replaced with a leucine (D→L), P05067
[2] = molecular target: Swedish mutant P13-P5′ peptide with P1′ aspartic acid replaced with a valine (D→V), P05067
Sequence of Swedish mutant P13-P5′ peptide with P1′ aspartic acid replaced with a valine (D→V), P05067 (P05067 whole entry, looked up, change not shown, tested part not stated): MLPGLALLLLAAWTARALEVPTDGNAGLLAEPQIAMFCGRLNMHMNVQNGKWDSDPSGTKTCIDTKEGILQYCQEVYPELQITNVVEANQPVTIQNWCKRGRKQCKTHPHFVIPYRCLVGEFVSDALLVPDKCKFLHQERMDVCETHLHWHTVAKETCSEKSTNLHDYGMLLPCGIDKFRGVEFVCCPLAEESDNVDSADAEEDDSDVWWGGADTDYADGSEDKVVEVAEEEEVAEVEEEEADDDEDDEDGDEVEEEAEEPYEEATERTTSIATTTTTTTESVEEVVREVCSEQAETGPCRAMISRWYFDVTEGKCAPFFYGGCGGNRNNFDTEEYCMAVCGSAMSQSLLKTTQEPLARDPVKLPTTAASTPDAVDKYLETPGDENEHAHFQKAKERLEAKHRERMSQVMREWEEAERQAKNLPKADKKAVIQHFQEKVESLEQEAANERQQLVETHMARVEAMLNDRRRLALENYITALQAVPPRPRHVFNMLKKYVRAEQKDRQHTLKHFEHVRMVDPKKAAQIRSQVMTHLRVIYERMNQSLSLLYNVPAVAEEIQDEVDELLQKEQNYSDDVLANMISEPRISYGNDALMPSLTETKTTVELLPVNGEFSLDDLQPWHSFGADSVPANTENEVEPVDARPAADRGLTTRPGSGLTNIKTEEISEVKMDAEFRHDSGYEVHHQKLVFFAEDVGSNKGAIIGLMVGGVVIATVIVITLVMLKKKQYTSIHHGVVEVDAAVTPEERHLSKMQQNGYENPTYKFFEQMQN

Sequence of Swedish mutant P13-P5′ peptide with P1′ aspartic acid replaced with a leucine (D→L), P05067 (P05067 whole entry, looked up, change not shown, tested part not stated): as above

B1: naturally occurring β-secretase purified from human brain (protein)
chain: ETDEEPEEPGRRGSFVEMVDNLRGKSGQGYYVEMTVGSPPQTLNILVDTGSSNFAVGAAPHPFLHRYYQRQLSSTYRDLRKGVYVPYTQGKWEGELGTDLVSIPHGPNVTVRANIAAITESDKFFINGSNWEGILGLAYAEIARPDDSLEPFFDSLVKQTHVPNLFSLQLCGAGFPLNQSEVLASVGGSMIIGGIDHSLYTGSLWYTPIRREWYYEVIIVRVEINGQDLKMDCKEYNYDKSIVDSGTTNLRLPKKVFEAAVKSIKAASSTEKFPDGFWLGEQLVCWQAGTTPWNIFPVISLYLMGEVTNQSFRITILPQQYLRPVEDVATSQDDCYKFAISQSSTGTVMGAVIMEGFYVVFDRARKRIGFAVSACHVHDEFRTAAVEGPFVTLDMEDCGYNIPQTDESTLMTIAYVMAAICALFMLPLCLMVCQWRCLRCLRQQHDDFADDISLLK
Question: What does the source list for B1?
Answer: substrate concentration dependence of hydrolysis by brain β-secretase [1]: show saturation at a lower concentration than the parent Swedish peptide; substrate concentration dependence of hydrolysis by brain β-secretase [2]: show saturation at a lower concentration than the parent Swedish peptide
